{"source": "patent US20240352438A1", "about": "“MEANS AND METHODS FOR DETOXIFYING OCHRATOXIN A” (DSM Austria GmbH, priority 2021, published 2024)", "molecules": {"B1": {"name": "SEQ ID NO: 2: exemplary OTA-hydrolyzing polypeptide 2 belonging to the amidohydrolase protein family (protein)", "chain": "MYSLAIRNGIVFDGEKFIGKTNIYVDGDKIVKITNERLDAKEEVNAEGYFVMPGLIDAHLHLTGIRGGSLLMGYLLDDPRTRLLRAANWARELLMAGFTTVRDCGEPNSIILRNAINEGIIPGPRIIAAGSPITQTFGHAELSHSLPLEWSIQLGFGEICDGVDECIKAARKVLRSGADFIKIMATGGVLSERDRPEWPQLTPEEMSAIVREAEKVGTYVAAHAHGDKGARIAVEAGVRTIEHGSLITEETVKLMAEKGVSLTPTLSIQELIYKYGKQMGIDPWGLEKIGQVREGVINSIKLARKYGVMILAGTDLGFKTGLDIDMGKNWVEVKLLVELGGLSSEEALRAATGNASKMLRLNTGIIREGYLADIVLINGNPLENINDIARVSTVIKGGKVTVENGKLI", "modifications": "polypeptide 2", "notes": "exemplary OTA-hydrolyzing polypeptide 2 belonging to the amidohydrolase protein family"}, "B2": {"name": "48 (protein)", "chain": "MTTRTRILTAFLSLLAANACAADAAPAAPHTVVLRAARMFDGASGKLVDHPQLTIVGNKIVRIAQGDKAEVPAGAEVVDLGDATLLPGFIDAHVHLSGQSSDNWYGDFADNMMRFPAEQALYGAYYARITLEAGFTSVRDVGSTDWVALGLRNAIDAGKVPGPRMLVSNYAVGSTGGHADQDPIPPHKLPLAGPLQGVCNGPEECRAAVRYQIKYGANVIKFMPSGGVLSLSDPVDAPELSQDEMNAVIGESHAWGRKVAAHAHGDKAAKMAVAAGVDSIEHGSFIEDDTLRAMKAKNVYLVPTISAIAHVEEKIGTFPPVIAEKGRAAAAHLRQTFRHAVQIGVPIALGTDAGVGAHGSNAREFRYMVENGLTPAQALLAGTANAARLLGTFDRVGTLEAGKLADVVAVPGNPIADITVTERPLFVMKDGVVVRRDAVR", "modifications": "exemplary polypeptide"}, "B3": {"name": "50 (protein)", "chain": "MTTRTRILTAFLSLLAANACAADAAPAAPHTVVLRAARMFDGASGKLVDHPQLTIVGNKIVRIAQGDKAEVPAGAEVVDLGDATLLPGFIDAHVHLSGQSSDNWYGDFFDNMMRFPAEQALYGAYYARITLEAGFTSVRDVGSTDWVALGLRNAIDAGKVPGPRMLVSNYPVGSTGGHADQDPIPPHKLPLAGPLQGVCNGPEECRAAVRYQIKYGANVIKFMPSGGVLSLSDPVDAPELSQDEMNAVIGESHAWGRKVAAHAHGDKAAKMAVAAGVDSIEHGSFIEDDTLRAMKAKNVYLVPTISAIAHVEEKIGTFPPVIAEKGRAAAAHLRQTFRHAVQIGVPIALGTDAGVGAHGSNAREFRYMVENGLTPAQALLAGTANAARLLGTFDRVGTLEAGKLADVVAVPGNPIADITVTERPLFVMKDGVVVRRDAVR", "modifications": "exemplary polypeptide"}, "B4": {"name": "49 (protein)", "chain": "MTTRTRILTAFLSLLAANACAADAAPAAPHTVVLRAARMFDGASGKLVDHPQLTIVGNKIVRIAQGDKAEVPAGAEVVDLGDATLLPGFIDAHVHLSGQSSDNWYGDFFDNMMRFPAEQALYGAYYARITLEAGFTSVRDVGSADWVALGLRNAIDAGKVPGPRMLVSNYAVGSTGGHADQDPIPPHKLPLAGPLQGVCNGPEECRAAVRYQIKYGANVIKFMPSGGVLSLSDPVDAPELSQDEMNAVIGESHAWGRKVAAHAHGDKAAKMAVAAGVDSIEHGSFIEDDTLRAMKAKNVYLVPTISAIAHVEEKIGTFPPVIAEKGRAAAAHLRQTFRHAVQIGVPIALGTDAGVGAHGSNAREFRYMVENGLTPAQALLAGTANAARLLGTFDRVGTLEAGKLADVVAVPGNPIADITVTERPLFVMKDGVVVRRDAVR", "modifications": "exemplary polypeptide"}}, "key": {"[1]": {"assay": "Pelleting trial: degradation of spiked OTA to OTalpha in mash feed and resuspended pellets", "settings": "for OTalpha %: formed OTalpha; for OTA %: remaining OTA", "protocol": "To verify the suitability of the enzymes referred to herein as additives e.g. for feed or food, pelleting trials were conducted. As an example, 1.15 U or 0.06 U of either of the enzymes having either the amino acid sequence of SEQ ID NO: 1 or 2 was homogeneously mixed with one kg of mash feed and subjected to standard feed pelleting process where the temperature of the conditioner was set to either 75, 80, 85, 90 or 95° C. in five separate batches of feed pelleting. The effect of pelleting process on the stability of enzyme was estimated by calculation of percentage degradation of spiked OTA to OTalpha in resuspended pellets. Untreated mash was analyzed applying the following protocol: 50 μL of 10 ppm OTA were spiked to g of dry sample, directly before starting the assay by adding 4.95 mL RO-water (37° C.). The suspension was incubated in 50 mL tubes in an overhead shaker at 37° C. for 60 min. The reaction was stopped by adding 1 mL 6 M phosphoric acid followed by another incubation in a rotary shaker at room temperature for 10 min. Subsequently 30 μL of ^13C-labeled OTA/^13C-labeled OTalpha (each 1 ppm) internal standard were added to each sample and mixed. 30 mL ethyl acetate were added followed by shaking for 60 min at 80 rpm on an overhead shaker. After centrifugation (10 min, 3214 rcf), 8 mL of the organic upper phase were transferred to a new 50 mL tube. 4 mL of 0.1 M NaHCO3 (pH 8.2) were added. After shaking for 1 min at 80 rpm on an overhead shaker, sample was centrifuged again (10 min, 3214 rcf) and 3 mL of the aqueous lower phase transferred to a new 15 mL tube. 70 μL 85% phosphoric acid and 1.5 mL ethyl acetate were added and shaken for 1 min at 80 rpm at an overhead shaker. After centrifugation (10 min, 3214 rcf) 50 μL organic upper phase were added to 50 μL acetonitrile in a silanized HPLC vial and thoroughly mixed. OTA and OTalpha content was determined by HPLC MS/MS method as described by Dellafiora et al. (2020, Toxins 12, 258) to determine the percentage of OTA degradation to form OTalpha."}, "[2]": {"assay": "Feeding trial in pigs: OTA concentration in plasma and urine", "type": "in vivo", "settings": "for % OTA reduction, plasma samples / % OTA reduction, urine samples: day 14", "protocol": "To further study an application of the enzymes referred to herein as additives e.g. for feed or food, feeding trials were conducted in pigs. Exemplarily, either of the enzymes having either the amino acid sequence of SEQ ID NO: 1 or 2 were produced by cultivation of E. coli transformants in bioreactors by applying methods known to a person having skill in the art. The cell broth was homogenized and centrifuged. The supernatant was concentrated, dried by lyophilization and formulated as a powder by grinding. The enzymatic activity of the thus obtained lyophilized powder was determined, and the powder was mixed with feed for the feeding trial as described in the following.\nThirteen piglet groups were studied based on the following experimental diet setups: 1) Base feed; 2) base feed+50 ppb OTA; 3) base feed+50 ppb OTA+2.62 U of the enzyme of SEQ ID NO: 1 per kg of feed; 4) base feed+50 ppb OTA+0.29 U of the enzyme of SEQ ID NO: 2 per kg of feed; 5) base feed+500 ppb OTA; 6) base feed+500 ppb OTA+2.62 U of the enzyme of SEQ ID NO: 1 per kg of feed; 7) 500 ppb OTA+0.29 U of the enzyme of SEQ ID NO: 2 per kg of feed.\nEach trial group consisted of four piglets weighing approximately 7-8 kg, who were coming out from weaning and adapted to solid diet before being fed the experimental diet as described above. The duration of the feeding trial (i.e. actual days of feeding the experimental diet) was fourteen days. Collectively each trial group consumed around 15 kg of feed. No piglets fell sick to any unexpected disease throughout the feeding trial. Urine and blood samples were collected on day 0, just before starting the experimental diet, and on day 14.\nExtraction of OTA was performed from plasma and urine samples for subsequent analysis by HPLC-MS. 200 μL of sample was thoroughly mixed with 800 μL of extraction solution (containing 99% of ethyl acetate and 1% of phosphoric acid, 85%) followed by centrifugation at 19000×g for 5 min for phase separation. 50 μL of upper phase was diluted with 50 μL of acetonitrile, followed by HPLC-MS analysis. The HPLC-MS method as described by Dellafiora et al. (2020, Toxins 12, 258) was used to determine the changes in OTA concentration in the samples taken during the trial upon consumption of the experimental diets. The results are shown in Table 18 using the diet setup numbering as indicated above."}, "[3]": {"assay": "OTA detoxification activity assay (specific activity, fluorescence reduction ex/em 390/450 nm)", "type": "biochemical", "settings": "SEQ ID NO: 1 = 100%", "in_short": "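Recombinant enzyme preparation with 200 ng/mL OTA in 100 mM sodium phosphate, at pH 6.0 and pH 7.5, 37° C. Degradation followed as the fall in fluorescence at ex/em 390/450 nm. Specific activity taken from the initial linear slope; one unit degrades 1 μmol OTA per min at a starting OTA of […].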"}, "[4]": {"assay": "Thermostability assay: residual OTA detoxification activity after 10 min incubation at 45-99° C. (T50)", "type": "physicochemical", "settings": "0.1 mg/mL protein in 20 mM Tris-HCl pH 7.5, residual OTA detoxification activity relative to 4° C. reference aliquot", "in_short": "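T50 marks the temperature range at which half the starting OTA-detoxifying activity is lost, versus an unheated 4 °C reference. Samples were 0.1 mg/mL purified protein in 20 mM Tris-HCl pH 7.5, exposed for 10 min to 45, 55, 65, 75, 80, 85, 90, 95 or 99 °C.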"}, "[5]": {"settings": "mash before pelleting, 1.15 U or 0.06 U enzyme per kg mash feed, 37° C., 60 min"}, "[6]": {"settings": "500 ppb OTA+enzyme (2.62 U SEQ ID NO: 1 or 0.29 U SEQ ID NO: 2 per kg of feed)"}, "[7]": {"settings": "base feed+50 ppb OTA+enzyme (2.62 U SEQ ID NO: 1 or 0.29 U SEQ ID NO: 2 per kg of feed)"}}}
{"molecule": "B1", "values": [{"measurement": "OTalpha %", "setting": "[1]; after pelleting at 75° C.", "value": 84, "unit": "%"}, {"measurement": "OTalpha %", "setting": "[1]; after pelleting at 80° C.", "value": 88, "unit": "%"}, {"measurement": "OTalpha %", "setting": "[1]; after pelleting at 85° C.", "value": 84, "unit": "%"}, {"measurement": "OTalpha %", "setting": "[1]; after pelleting at 90° C.", "value": 88, "unit": "%"}, {"measurement": "OTalpha %", "setting": "[1]; after pelleting at 95° C.", "value": 87, "unit": "%"}, {"measurement": "OTalpha %", "setting": "[1]; [5]", "value": 80, "unit": "%"}, {"measurement": "OTA %", "setting": "[1]; after pelleting at 75° C.", "value": 16, "unit": "%"}, {"measurement": "OTA %", "setting": "[1]; after pelleting at 80° C.", "value": 12, "unit": "%"}, {"measurement": "OTA %", "setting": "[1]; after pelleting at 85° C.", "value": 16, "unit": "%"}, {"measurement": "OTA %", "setting": "[1]; after pelleting at 90° C.", "value": 12, "unit": "%"}, {"measurement": "OTA %", "setting": "[1]; after pelleting at 95° C.", "value": 13, "unit": "%"}, {"measurement": "OTA %", "setting": "[1]; [5]", "value": 20, "unit": "%"}, {"measurement": "OTA concentration in plasma samples, Day 14", "setting": "[2]; [6]", "value": "107 ± 31", "unit": "ppb"}, {"measurement": "OTA concentration in urine samples, Day 14", "setting": "[2]; [6]", "value": 4, "unit": "ppb"}, {"measurement": "% OTA reduction, plasma samples", "setting": "[2]; [6]", "value": 74, "unit": "%"}, {"measurement": "% OTA reduction, urine samples", "setting": "[2]; [6]", "value": 80, "unit": "%"}, {"measurement": "OTA concentration in plasma samples, Day 14", "setting": "[2]; [7]", "value": "11 ± 3", "unit": "ppb"}, {"measurement": "OTA concentration in urine samples, Day 14", "setting": "[2]; [7]", "value": 0, "unit": "ppb"}, {"measurement": "% OTA reduction, plasma samples", "setting": "[2]; [7]", "value": 73, "unit": "%"}, {"measurement": "% OTA reduction, urine samples", "setting": "[2]; [7]", "value": 100, "unit": "%"}]}
{"molecule": "B2", "values": [{"measurement": "Specific OTA detoxification activities in % compared to the enzyme of SEQ ID NO: 1, pH 6.0", "setting": "[3]", "value": 54, "unit": "%"}, {"measurement": "Specific OTA detoxification activities in % compared to the enzyme of SEQ ID NO: 1, pH 7.5", "setting": "[3]", "value": 102, "unit": "%"}, {"measurement": "T50 (temperature at which 50% of the initial activity was maintained)", "setting": "[4]", "value": "<63.2", "unit": "°C"}]}
{"molecule": "B3", "values": [{"measurement": "Specific OTA detoxification activities in % compared to the enzyme of SEQ ID NO: 1, pH 6.0", "setting": "[3]", "value": 81, "unit": "%"}, {"measurement": "Specific OTA detoxification activities in % compared to the enzyme of SEQ ID NO: 1, pH 7.5", "setting": "[3]", "value": 257, "unit": "%"}, {"measurement": "T50 (temperature at which 50% of the initial activity was maintained)", "setting": "[4]", "value": 64, "unit": "°C"}]}
{"molecule": "B4", "values": [{"measurement": "Specific OTA detoxification activities in % compared to the enzyme of SEQ ID NO: 1, pH 6.0", "setting": "[3]", "value": 76, "unit": "%"}, {"measurement": "Specific OTA detoxification activities in % compared to the enzyme of SEQ ID NO: 1, pH 7.5", "setting": "[3]", "value": 179, "unit": "%"}, {"measurement": "T50 (temperature at which 50% of the initial activity was maintained)", "setting": "[4]", "value": "68-70 °C"}]}
